# T1: hGITR.mmh (human)
# T1 construct: soluble monomeric construct; also called human (h) GITR.mmh; monomeric human GITR
# T1 chain: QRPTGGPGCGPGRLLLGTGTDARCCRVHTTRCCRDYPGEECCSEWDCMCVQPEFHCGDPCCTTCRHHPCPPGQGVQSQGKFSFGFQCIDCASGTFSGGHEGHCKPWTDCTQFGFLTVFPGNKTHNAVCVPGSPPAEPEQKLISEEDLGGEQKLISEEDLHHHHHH
# T2: hGITR.mFc (human)
# T2 construct: soluble dimeric construct with mouse Fc; also called dimeric human GITR
# T2 chain: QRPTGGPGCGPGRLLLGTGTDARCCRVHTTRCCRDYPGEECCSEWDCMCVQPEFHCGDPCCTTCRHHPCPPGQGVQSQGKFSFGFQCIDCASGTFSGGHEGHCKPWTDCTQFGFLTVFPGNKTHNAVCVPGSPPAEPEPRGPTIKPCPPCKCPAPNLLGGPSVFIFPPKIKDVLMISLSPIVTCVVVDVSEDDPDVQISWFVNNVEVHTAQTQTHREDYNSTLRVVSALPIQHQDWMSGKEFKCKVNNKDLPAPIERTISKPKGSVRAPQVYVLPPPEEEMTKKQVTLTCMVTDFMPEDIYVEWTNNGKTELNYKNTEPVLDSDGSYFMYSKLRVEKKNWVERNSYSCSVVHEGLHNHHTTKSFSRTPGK
# T3: mfGITR.mmh (Macaca fasicularis)
# T3 construct: soluble monomeric construct; also called Macaca fasicularis (mf) GITR.mmh; cynomolgus GITR protein
# T3 chain: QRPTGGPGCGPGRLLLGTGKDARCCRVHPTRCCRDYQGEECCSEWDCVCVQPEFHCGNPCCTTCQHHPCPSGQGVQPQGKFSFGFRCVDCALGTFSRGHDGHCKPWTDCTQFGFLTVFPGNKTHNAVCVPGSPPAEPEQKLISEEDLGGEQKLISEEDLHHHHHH
# T4: human GITR (amino acids M1-V241, NCBI Accession #NP_004186.1) expressed on cells (human, UniProt Q9Y5U5 26-241)
# T4 sequence: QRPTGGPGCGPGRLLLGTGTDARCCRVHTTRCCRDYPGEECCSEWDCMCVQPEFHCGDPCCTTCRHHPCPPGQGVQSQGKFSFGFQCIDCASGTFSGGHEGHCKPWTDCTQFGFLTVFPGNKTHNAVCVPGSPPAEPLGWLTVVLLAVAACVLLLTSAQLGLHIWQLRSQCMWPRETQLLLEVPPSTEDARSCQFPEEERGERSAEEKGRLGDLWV
# What was measured:
# [1] = biological target: T1, hGITR.mmh; assay: SPR 37C, mAb capture
# [2] = biological target: T2, hGITR.mFc; assay: SPR 37C, mAb capture
# [3] = biological target: T3, mfGITR.mmh; assay: SPR 37C, mAb capture
# [4] = biological target: T4, human GITR (amino acids M1-V241, NCBI …); assay: cell-based or functional assay
# [5] = biological target: T4, human GITR (amino acids M1-V241, NCBI …); assay: cell-based or functional assay; remark: listed apart in the source
# [6] = biological target: T4, human GITR (amino acids M1-V241, NCBI …); assay: cell-based or functional assay; remark: listed apart in the source
# [7] = biological target: T4, human GITR (amino acids M1-V241, NCBI …); assay: cell-based or functional assay; remark: listed apart in the source
# [8] = biological target: T4, human GITR (amino acids M1-V241, NCBI …); assay: cell-based or functional assay; remark: listed apart in the source
# [9] = biological target: T4, human GITR (amino acids M1-V241, NCBI …); assay: cell-based or functional assay; remark: listed apart in the source
# [10] = biological target: T4, human GITR (amino acids M1-V241, NCBI …); assay: cell-based or functional assay; remark: listed apart in the source
# [11] = biological target: T4, human GITR (amino acids M1-V241, NCBI …); assay: ECL cell binding, hGITR/HEK293-D9
# In short: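 Cells blocked with 2% BSA, then antibody dilutions from 1.7 pM to 100 nM added 1 h at RT. Bound antibody detected with SULFO-TAG anti-human kappa antibody, electrochemiluminescence read, RLU fitted by four-parameter logistic; signal at 100 nM on hGITR cells versus parental cells also recorded.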
binder,measurement,setting,value
"H4H14536P2 (antibody, human IgG4, V domains shown, human IgG4 (H4H)) VH: QVQLQESGPGLVKPSETLSLTCIVSGGSISGYFWNWIRQPPGKGLEWIGYIYYSGTTIYNPSLKSRFTISLDTSKNQFSLKLTSVTAADTAVYYCARESYNPSPRYFDHWGQGTLVTVSS VL: not shown",Kd,[1],23 nM
same,koff,[1],0.00976 s⁻¹
same,kon,[1],424000 M⁻¹ s⁻¹
same,t½,[1],1.2 min
same,Kd,[2],0.173 nM
same,koff,[2],0.000219 s⁻¹
same,kon,[2],1.26e+06 M⁻¹ s⁻¹
same,t½,[2],52.7 min
same,Kd,[3],142 nM
same,koff,[3],0.0147 s⁻¹
same,kon,[3],104000 M⁻¹ s⁻¹
same,t½,[3],0.8 min
same,"% Activation, NF-kB-Luc, non-anchored",[4],20%
same,"% Blocking, NF-kB-Luc, non-anchored",[4],90%
same,"EC50, hGITR activation, NF-kB-Luc, non-anchored",[4],1.1 nM
same,"IC50, blocking of hGITRL stimulation, NF-kB-Luc, non-anchored",[4],2 nM
same,"EC50, hGITR activation, NF-kB-Luc, FcgR anchored",[5],0.01 nM
same,"Fold Activation over basal signal, NF-kB-Luc, FcgR anchored",[5],5 fold
same,"IC50, blocking of hGITRL stimulation, NF-kB-Luc, FcgR anchored",[5],0.2 nM
same,"fold activation, T-cell proliferation, plate-bound Ab 10.6 nM, donor 1",[6],3 fold
same,"fold activation, T-cell proliferation, plate-bound Ab 10.6 nM, donor 2",[6],24 fold
same,"fold activation, T-cell proliferation, plate-bound Ab 10.6 nM, donor 3",[6],24 fold
same,"fold activation, T-cell proliferation, plate-bound Ab 10.6 nM, donor 4",[6],25 fold
same,"fold activation, T-cell proliferation, plate-bound Ab 10.6 nM, donor 5",[6],24 fold
same,"fold activation, T-cell proliferation, plate-bound Ab 10.6 nM, donor 6",[6],47 fold
same,"fold activation, T-cell proliferation, plate-bound Ab 10.6 nM, donor 7",[6],26 fold
same,"fold activation, T-cell proliferation, plate-bound Ab 10.6 nM, donor 8",[6],16 fold
same,"fold activation, T-cell proliferation, plate-bound Ab 10.6 nM, mean",[6],23 fold
same,"fold activation, T-cell proliferation, 33 nM, FcgR anchored, donor 1",[7],1.3 fold
same,"fold activation, T-cell proliferation, 33 nM, FcgR anchored, donor 2",[7],6.3 fold
same,"fold activation, T-cell proliferation, 33 nM, FcgR anchored, donor 3",[7],1.5 fold
same,"fold activation, T-cell proliferation, 33 nM, FcgR anchored, donor 4",[7],2.7 fold
same,"fold activation, T-cell proliferation, 33 nM, FcgR anchored, donor 5",[7],15.7 fold
same,"fold activation, T-cell proliferation, 33 nM, FcgR anchored, mean",[7],5.5 fold
same,"EC50, T-cell proliferation, FcgR anchored, donor 1",[8],1.2 nM
same,"EC50, T-cell proliferation, FcgR anchored, donor 2",[8],0.5 nM
same,"EC50, T-cell proliferation, FcgR anchored, donor 3",[8],1.3 nM
same,"EC50, T-cell proliferation, FcgR anchored, donor 4",[8],11.2 nM
same,"EC50, T-cell proliferation, FcgR anchored, donor 5",[8],1.6 nM
same,"EC50, T-cell proliferation, FcgR anchored, mean",[8],3.2 nM
same,"fold activation, T-cell proliferation, 22 nM, non-anchored, donor 1",[9],6.2 fold
same,"fold activation, T-cell proliferation, 22 nM, non-anchored, donor 2",[9],4.2 fold
same,"fold activation, T-cell proliferation, 22 nM, non-anchored, donor 3",[9],10.1 fold
same,"fold activation, T-cell proliferation, 22 nM, non-anchored, donor 4",[9],23.4 fold
same,"fold activation, T-cell proliferation, 22 nM, non-anchored, mean",[9],11 fold
same,"EC50, T-cell proliferation, non-anchored, average",[10],8.3 nM
same,"EC50, T-cell proliferation, non-anchored, donor 1",[10],12.2 nM
same,"EC50, T-cell proliferation, non-anchored, donor 2",[10],6.4 nM
same,"EC50, T-cell proliferation, non-anchored, donor 3",[10],9 nM
same,"EC50, T-cell proliferation, non-anchored, donor 4",[10],5.7 nM
same,Average Signal (RLU) at 100 nM,[11],8960 RLU
same,EC50,[11],0.36 nM

# From US20170355774A1 (Regeneron, published 2017)
